Drawing on publication PMC2119102 (The Journal of Experimental Medicine, 1992), this text covers Kd for one molecule.

The target in this experiment is T1, human interleukin 5 receptor encoded by cDNA clone lambda-h5R.27 (human, UniProt Q01344 21-395).
T1 sequence: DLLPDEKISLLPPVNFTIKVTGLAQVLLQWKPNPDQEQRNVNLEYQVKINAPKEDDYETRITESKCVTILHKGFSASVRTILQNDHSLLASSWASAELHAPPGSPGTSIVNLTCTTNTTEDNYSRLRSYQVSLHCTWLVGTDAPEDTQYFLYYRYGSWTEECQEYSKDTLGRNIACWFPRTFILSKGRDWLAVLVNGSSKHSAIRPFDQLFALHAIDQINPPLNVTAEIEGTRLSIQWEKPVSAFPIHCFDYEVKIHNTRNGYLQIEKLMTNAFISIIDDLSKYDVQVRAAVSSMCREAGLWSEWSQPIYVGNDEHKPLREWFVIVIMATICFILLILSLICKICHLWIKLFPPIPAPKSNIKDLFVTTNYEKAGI
Kind of experiment: radioligand binding.

B1: recombinant murine interleukin 5, 35S-methionine labelled (ligand, mouse, UniProt P04401 21-133, looked up)
chain: MEIPMSTVVKETLTQLSAHRALLTSNETMRLPVPTHKNHQLCIGEIFQGLDILKNQTVRGGTVEMLFQNLSLIKKYIDRQKEKCGEERRRTRQFLDYLQEFLGVMSTEWAMEG
modifications: 35S-methionine labelled
Broadly, the Kd is the equilibrium constant for the complex coming apart. A low value points to tighter binding. B1 registered a Kd of 0.25 nM.
